# Measured values as given in patent publication US20240174744A1 (SCIRHOM, published 2024).
# T1: hiR1-FL-WT-T7 (human iRhom1 full length wild type C-terminally tagged with 3 consecutive copies of the T7 … (human, UniProt Q96CC6 1-855))
# T1 construct: also called human iRhom1 variant expressed by MEF-DKO-hiR1-FL-WT-T7 cells
# T1 sequence: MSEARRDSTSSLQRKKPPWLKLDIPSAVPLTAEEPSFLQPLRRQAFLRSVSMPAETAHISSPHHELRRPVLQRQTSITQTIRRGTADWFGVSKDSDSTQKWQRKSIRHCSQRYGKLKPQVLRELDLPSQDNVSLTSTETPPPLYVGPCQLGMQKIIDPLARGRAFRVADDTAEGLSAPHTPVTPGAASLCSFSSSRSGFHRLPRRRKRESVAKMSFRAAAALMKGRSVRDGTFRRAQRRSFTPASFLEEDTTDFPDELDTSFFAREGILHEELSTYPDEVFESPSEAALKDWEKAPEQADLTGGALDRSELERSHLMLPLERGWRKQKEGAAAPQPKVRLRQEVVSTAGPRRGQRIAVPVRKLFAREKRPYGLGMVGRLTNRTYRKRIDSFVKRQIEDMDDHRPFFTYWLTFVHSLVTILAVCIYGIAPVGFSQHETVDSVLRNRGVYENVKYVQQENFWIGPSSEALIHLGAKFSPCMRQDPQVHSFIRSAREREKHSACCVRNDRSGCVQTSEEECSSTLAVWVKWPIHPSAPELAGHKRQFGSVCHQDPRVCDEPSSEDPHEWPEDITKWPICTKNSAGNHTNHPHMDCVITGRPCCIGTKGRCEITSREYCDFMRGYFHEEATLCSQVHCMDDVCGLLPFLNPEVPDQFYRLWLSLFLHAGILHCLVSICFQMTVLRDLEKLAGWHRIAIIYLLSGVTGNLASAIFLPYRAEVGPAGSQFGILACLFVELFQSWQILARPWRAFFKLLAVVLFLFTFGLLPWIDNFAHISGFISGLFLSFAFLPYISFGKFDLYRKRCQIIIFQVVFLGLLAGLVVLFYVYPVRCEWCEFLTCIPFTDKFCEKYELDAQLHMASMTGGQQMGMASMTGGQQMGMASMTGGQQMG
# B1: antibody 43 (antibody, V domains shown)
# VH: QVALKESGPGILQPSQTLSLTCSFSGFSLSTFGMGVGWIRQSSGKGLEWLANIWWDDDKYYNPALKSRLTISKDASKNQAFLKIANVDTADTATYYCARIGNYGSNYWYFDVWGTGTTVTVSS
# VL: QIVLTQSPAIMSASPGERVTMTCSANSRISYMYWYQQKPGSSPRLLIYDTSNLASGVPVRFSGSGSGTSYSLTISRMEAEDAATYNCQQWSSYPLTFGAGTKLELK
# notes: Mouse IgG, kappa light chain; also called clone #43
# B2: antibody 42 (antibody, V domains shown)
# VH: QVTLKESGPGILQPSQTLSLTCSLSGFSLSTFGRGVGWIRQPSGKGLEWLAHIWWDDEKYYNPALKSRLTISKDTSKNQVFLRIANVDTADTATYYCARIQNYGSNYWYFDVWGTGTTVTVSS
# VL: LIVLTQSPAIMSASPGEKVTMTCGATSRISYMFWYQQKPGSSPRVLIYDTSNLASGVPVRFSGSGSGTSYSLTISRVEAEDVATYYCQQWNSYPLTFGAGTKLELK
# notes: Mouse IgG, kappa light chain; also called clone #42; m42
# B3: antibody 5 (antibody, V domains shown)
# VH: QVTLKESGPGILQPSQTLSLTCSFSGFSLSTFGMGVGWIRQPSGKGLEWLAHIWWDDEKYYNSALKSRLTISKATSKNQAFLKIANVDTADTATYYCARISNYGSNYWYFNVWGTGTTVTVSS
# VL: QVVLTQSPALMSASPGEKVTMTCSAGSSVSCMYWYQQKPGSSPRVLIYDTSNLASGVPARFTGSGSGTSYSLTISRMEAEDAASYYCQQWNSYPLTFGAGTKLELK
# notes: Mouse IgG, kappa light chain; also called clone #5; purified antibody 5
# B4: antibody 44 (antibody, V domains shown)
# VH: QVTLKESGPGILQPSQTLSLTCSFSGFSLSTFGMGVGWIRQPSEKGLEWLAHIWWDDDKYYNPALKSRLTISKDTSKNQIFLKITNVDTAETATYYCSRIGNYGSNYWYFDVWGTGTTVTVSS
# VL: QIVLTQSPAVMSASPGEKVTMTCTASSSVYYMYWYQQTPGSSPRLLIYDTSNLASGVPVRFSGSGSGTSYSLTISRMEAEDAATYYCQQWNTYPLTFGAGTKLELK
# notes: Mouse IgG, kappa light chain; also called clone #44; m44
# B5: antibody 22 (antibody, V domains shown)
# VH: QVTLKESGPGILQPSQTLSLTCSFSGFSLSTFGMGVGWIRQPSGKGLEWLAHIWWDDEKYYNSALKSRLTISKATSKNQVFLKIANVDTADTATYYCARISNYGSNYWYFNVWGTGTTVTVSS
# VL: QVVLTQSPALMSASPGEKVTMTCSAGSSVSYMYWYQQKPGSSPRVLIYDTSNLASGVPARFTGSGSGTSYSLTISRMEAEDAATYYCQQWNSYPLTFGAGTKLELK
# notes: Mouse IgG, kappa light chain; also called clone #22; m22
# B6: antibody 34 (antibody, V domains shown)
# VH: QVTLKESGPGILQPSQTLSLTCSFSGFSLSTFSLGVGWIRQSSGKGLEWLAHIWWDDEKYYNPALKSRLTISKDTSKNQVFLKIANVDAADTATYYCARAYYSKSYYALDYWGQGTSVTVSS
# VL: DIQMTQSPSSLSASLGERVSLTCRASQEISGYLSWLQQKPDGTIKRLIYAASTLDSGVPKRFSGSRSGSDYSLAISSLESEDFADYYCLQYANFPFTFGSGTKLEIK
# notes: Mouse IgG, kappa light chain; also called clone #34; m34
# B7: antibody 50 (antibody, V domains shown)
# VH: QVQLQQSGAELVRPGASVKVSCKASGYAFSNYLIEWVKQRPGQGLEWIGVINPGSGFTKYNEKFKGKATLTADKSSSTAYMQLSSLTSEDSAVYFCARGLYRAMDYWGQGTSVTVSS
# VL: DIQMTQSPASQSASLGESVTITCLASQTIGTWLAWYQQKPGKSPQLLIYAAASLADGVPSRFSGGGSGTKFSFKISSLQAEDFVNYYCQQIYSTPYTFGGGTKLEIK
# notes: Mouse IgG, kappa light chain; also called clone #50; purified antibody 50
# B8: antibody 16 (antibody, V domains shown)
# VH: QVTLKESGPGILQPSQTLSLTCSFSGFSLSTFALGVGWIRQPSGRGLEWLAHIWWDDDKYYNPALKSRLTISKDTSKNHVFLKIANVDTADTATYYCARITTYYYGMDYWGQGTSVTVSS
# VL: DIVLSQSPATLSVTPGDSVSLFCRASQSIGNHLHWYQQESHASPRLLIKYASQSISGIPSRFSGSGSGTDFTLSINSVETEDFGMYFCQQSYNWPLTFGAGTKLELK
# notes: Mouse IgG, kappa light chain; also called clone #16; m16
# Target: T1, hiR1-FL-WT-T7 (human iRhom1 full length …)
# Assay: FACS on cells of the row human iR1 wild type
row,Binder,binding result
1,B1,no binding (tested: 3 µg/ml)
2,B2,no binding (tested: 3 µg/ml)
3,B3,no binding (tested: 3 µg/ml)
4,B4,no binding (tested: 3 µg/ml)
5,B5,no binding (tested: 3 µg/ml)
6,B6,no binding (tested: 3 µg/ml)
7,B7,no binding (tested: 3 µg/ml)
8,B8,no binding (tested: 3 µg/ml)
